The values that follow come from patent publication US6545141.

The experiment deals with T7 peptide-added FC99 protein having T7 peptide added to the N-terminal of the amino acid sequence described as SEQ ID NO: 1 (human) (UniProt Q92529). In words: cell-based or functional assay.
Sequence of UniProt Q92529 (Q92529 other isoform, or with tags, fused parts or gaps limits assumed): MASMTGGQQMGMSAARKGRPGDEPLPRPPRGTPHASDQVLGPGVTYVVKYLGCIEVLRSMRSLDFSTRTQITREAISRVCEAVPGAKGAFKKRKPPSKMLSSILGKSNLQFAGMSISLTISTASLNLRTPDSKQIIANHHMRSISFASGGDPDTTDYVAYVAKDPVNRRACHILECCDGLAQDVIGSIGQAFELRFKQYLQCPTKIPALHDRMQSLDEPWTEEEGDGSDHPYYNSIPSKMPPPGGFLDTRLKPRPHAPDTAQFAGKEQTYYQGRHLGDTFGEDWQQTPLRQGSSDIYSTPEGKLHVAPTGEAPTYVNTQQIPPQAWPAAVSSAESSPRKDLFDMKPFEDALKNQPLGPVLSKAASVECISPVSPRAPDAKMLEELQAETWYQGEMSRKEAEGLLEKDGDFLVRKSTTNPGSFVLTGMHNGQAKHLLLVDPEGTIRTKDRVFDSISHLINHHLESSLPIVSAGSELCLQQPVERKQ

In turn, “TrkB receptor activated by the administration of BDNF” yielded a BDNF-dependent increase in the tyrosine phosphorylation of the FC99 protein (band densities of Lanes 2 and 3, NIH Image) of 2 fold.
